Data taken from PMC12857291.

Key:
MeCP2-MBD WT [1] = target: T1, MeCP2-MBD WT (UniProt P51608 80-164); test: EMSA; 20 uM histone H3(15-36)K27me3 peptide; EMSA: 0.5 uM DNA, 0-20 uM protein, 50 mM HEPES pH 7.5, 100 mM NaCl, 1 h at 4 C; 6% native PAGE, 1X TBE, 80 V, 4 C; SYBR Gold; n=3; conditions: protein: recombinant; tags: C-terminal 6xHis; label: none (SYBR Gold stain); blunt
MeCP2-MBD WT [2] = target: T1, MeCP2-MBD WT; test: EMSA; no peptide; EMSA: 0.5 uM DNA, 0-20 uM protein, 50 mM HEPES pH 7.5, 100 mM NaCl, 1 h at 4 C; 6% native PAGE, 1X TBE, 80 V, 4 C; SYBR Gold; n=3; conditions: protein: recombinant; tags: C-terminal 6xHis; label: none (SYBR Gold stain); blunt

T1 sequence (P51608 80-164): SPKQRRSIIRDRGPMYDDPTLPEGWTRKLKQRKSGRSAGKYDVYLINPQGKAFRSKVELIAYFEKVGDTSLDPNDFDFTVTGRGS

B1: BDNF promoter duplex mC/mC (dsDNA)
DNA 1: GCCCTGGAACGGAACTCTTCTGGCC
DNA 2: GGCCAGAAGAGTTCCGTTCCAGGGC
modifications: 5-methyl-dC at position 10 of the top strand and position 15 of the bottom strand (symmetric mCpG)
B1 showed a Kd (MeCP2-MBD WT [1]) of 1300 ± 100 nM and a Kd (MeCP2-MBD WT [2]) of 1200 ± 100 nM.
